3 substances from article PMC8760278 can be followed below.

In assay [1] the target is monomeric properdin lacking TSR domains 2 and 3 (FPΔ2,3) (human) (UniProt P27918). As to the kind of experiment: SEC-MALS; FPΔ2,3 with added CirpA1; S200 10/300 column in PBS, 100 uL at 1 mg/mL.
Assay [2] concerns the target properdin from human serum (human) (UniProt P27918).
The target in assay [3] is monomeric properdin lacking TSR domains 2 and 3 (FPΔ2,3) (human) (UniProt P27918). As to the kind of experiment: MST; RED-NHS labelled FPΔ2,3 constant at 50 nM, CirpA1 2 nM to 64 uM; PBS, 0.05% Tween-20, pH 7.4; Monolith NT.115.
Assay [4] addresses properdin from human serum (human) (UniProt P27918). The source holds these as a separate data set.

Chain of UniProt P27918 (P27918 28-469): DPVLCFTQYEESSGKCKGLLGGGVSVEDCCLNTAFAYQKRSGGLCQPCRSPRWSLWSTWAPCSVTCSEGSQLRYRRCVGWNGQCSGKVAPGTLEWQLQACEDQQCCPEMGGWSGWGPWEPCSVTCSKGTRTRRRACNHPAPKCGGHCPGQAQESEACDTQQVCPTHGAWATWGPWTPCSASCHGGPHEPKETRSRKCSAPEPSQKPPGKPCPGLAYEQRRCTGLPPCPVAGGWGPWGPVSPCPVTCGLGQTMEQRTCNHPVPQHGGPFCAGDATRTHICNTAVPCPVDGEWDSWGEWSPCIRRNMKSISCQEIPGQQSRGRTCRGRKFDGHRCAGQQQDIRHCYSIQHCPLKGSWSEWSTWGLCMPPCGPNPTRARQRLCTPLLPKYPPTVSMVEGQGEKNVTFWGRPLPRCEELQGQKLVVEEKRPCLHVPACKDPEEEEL

Substance “CirpA1 (Complement inhibitor from R. pulchellus of the alternative pathway 1), refolded (natural protein)” had a stoichiometry N in assay [1] of 1.
For the substance “CirpA1, recombinant, preparation not stated for the experiment (natural protein)”, the inhibition of the alternative pathway (MAC formation), WIESLAB assay, human serum in assay [2] is 13 nM. The Kd in assay [3] amounted to 97 nM. The same substance came in with an AP haemolysis assay, human serum, rabbit erythrocytes; CirpA1 purified from insect cells in assay [4] of 1.41e-08.
In turn, CirpA6 (natural protein) displayed an AP haemolysis assay, human serum, rabbit erythrocytes in assay [4] of 1.4e-08.

One may read the stoichiometry N as a count of units in the complex or per binding partner. For orientation: Kd means the free concentration of one partner at which half of the binding sites on the other are occupied at equilibrium, for simple one-to-one binding. A higher Kd goes with a looser complex.
